Source: PMC2952221

Target: 40 S ribosomal subunit, wild type (RDN+) (S. cerevisiae (endogenous in NOY908)) (UniProt P32905)
Experiment: co-sedimentation

Chain of UniProt P32905 (P32905 whole entry, looked up, tested part not stated): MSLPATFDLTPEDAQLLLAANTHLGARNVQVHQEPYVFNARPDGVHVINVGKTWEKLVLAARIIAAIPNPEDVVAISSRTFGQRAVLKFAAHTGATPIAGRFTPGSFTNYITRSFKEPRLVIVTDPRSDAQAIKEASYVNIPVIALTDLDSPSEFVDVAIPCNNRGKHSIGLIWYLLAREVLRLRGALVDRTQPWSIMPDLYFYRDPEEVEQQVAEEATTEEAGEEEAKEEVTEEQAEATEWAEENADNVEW

| percent of the factor loaded on free 40 S subunits [%] | Substance |
| --- | --- |
| < 5 | eIF2 (heterotrimeric factor) (from UniProt P20459 1-304; P09064 1-285; P32481 1-527) (complex) |
| < 5 | eIF3 (from UniProt P38249 1-964; Q04067 1-274) (complex) |
| < 5 | eIF5 (from UniProt P38431 1-405) (natural protein) |
